Results reported in the supplement of paper PMC10126150.
± gives the standard deviation of the averaged measurements.

system: ATP; experiment: switch fluorescence ratio, 500 uM ATP over buffer (Cy3 cluster intensity, sum of 5 cycles each) (fold (ratio)); higher = stronger signal-on switching upon ATP binding; sequences stand for … in TCGTCGGCAGCGTCAGATGTGTATAAGAGACAGTTTTTTTTTTTTTTTTTTTTTTTTT…TC; details: aptamer strand: ATP DNA aptamer (quencher-CACCTGGGGGAGTATTGCGGAGGAAGG + anchor), 100 nM annealed; ATP concentration: 500 uM
How it was run: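 Exposure to 500 uM ATP lasted 15 min at 22 °C before imaging, and a selection-buffer image was taken beforehand, for Cy3-labelled switching-strand clusters on a modified Illumina MiSeq flow-cell annealed to 100 nM quencher-labelled ATP aptamer. Five buffer/ATP cycles were run with NaOH stripping and re-annealing between them. The fluorescence ratio per cluster is summed target-cycle over summed buffer-cycle Cy3 intensity, averaged per switch-domain sequence. Clusters outside 100-1000 RFU were excluded.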

| Sequence | switch fluorescence ratio |
| --- | --- |
| ACAGCGGATG | 1.028 ± 0.0095 |
| ACAGCTAGTA | 0.986 ± 0.019 |
| ACAGCTCGAG | 1 ± 0.02 |
| ACAGCTGATG | 0.977 ± 0.059 |
| ACAGGAAGAG | 1.05 ± 0.038 |
| ACAGGACAGG | 1.14 ± 0.014 |
| ACAGGACCGT | 1.11 ± 0.038 |
| ACAGGAGGTG | 1.13 ± 0.035 |
| ACAGGAGTTC | 0.968 ± 0.053 |
| ACAGGCACGC | 1.069 ± 0.0017 |
| ACAGGCGATC | 1.09 ± 0.018 |
| ACAGGCTGAG | 0.9973 ± 0.0097 |
| ACAGGCTTTT | 1 ± 0.018 |
| ACAGGGAAAT | 0.994 ± 0.038 |
| ACAGGGATTT | 1.03 ± 0.041 |
| ACAGGGGGGT | 1.17 ± 0.24 |
| ACAGGGTTCT | 0.987 ± 0.025 |
| ACAGGTAAGG | 1.055 ± 0.0073 |
| ACAGGTCTGT | 0.9797 ± 0.0047 |
| ACAGGTGCCG | 1.13 ± 0.11 |
| ACAGGTTGTT | 1.03 ± 0.071 |
| ACAGGTTTGA | 1.03 ± 0.021 |
| ACAGGTTTGC | 1.007 ± 0.0039 |
| ACAGTAGGGA | 1.049 ± 0.0093 |
| ACAGTCGGCG | 1.03 ± 0.021 |

| Sequence | switch fluorescence ratio |
| --- | --- |
| ACAGTCTATT | 1.02 ± 0.043 |
| ACAGTGAAAT | 1.02 ± 0.039 |
| ACAGTGCGCG | 1.03 ± 0.083 |
| ACAGTTTTGG | 1.017 ± 0.0047 |
| ACATAAGGTA | 1.04 ± 0.03 |
| ACATAAGGTT | 1.03 ± 0.052 |
| ACATAGAAAA | 1.01 ± 0.044 |
| ACATAGGGTA | 1.01 ± 0.013 |
| ACATAGTCGA | 1.03 ± 0.045 |
| ACATATGGAT | 1 ± 0.015 |
| ACATATTTTA | 1.03 ± 0.016 |
| ACATCAGATC | 1 ± 0.011 |
| ACATCCATTT | 1.02 ± 0.05 |
| ACATCCGAGT | 1.05 ± 0.054 |
| ACATCGGAAC | 1.04 ± 0.015 |
| ACATCGGGGG | 1.013 ± 0.0089 |
| ACATCGGTTG | 0.976 ± 0.028 |
| ACATCGTCGG | 1.014 ± 0.0091 |
| ACATCTCAGT | 1.06 ± 0.059 |
| ACATGAAGCA | 1.06 ± 0.025 |
| ACATGAGATT | 1.04 ± 0.015 |
| ACATGAGTGT | 1.02 ± 0.024 |
| ACATGCGTGG | 0.992 ± 0.022 |
| ACATGGGCGT | 0.977 ± 0.036 |
| ACATGGGGGC | 1 ± 0.045 |

| Sequence | switch fluorescence ratio |
| --- | --- |
| ACATGGGGGT | 1.01 ± 0.014 |
| ACATGGGGTC | 0.977 ± 0.012 |
| ACATGGTTAT | 0.994 ± 0.018 |
| ACATGTAGGA | 1 ± 0.032 |
| ACATGTGACG | 0.98236 ± 0.00039 |
| ACATTAAGGG | 1.06 ± 0.031 |
| ACATTAGGCT | 1.02 ± 0.046 |
| ACATTCTTTA | 0.9628 ± 0.0042 |
| ACATTGATAT | 1.01 ± 0.011 |
| ACATTTAGCT | 1.01 ± 0.03 |
| ACATTTTTGC | 0.9897 ± 0.0011 |
| ACCAAATACT | 1.26 ± 0.014 |
| ACCAATATCT | 1.01 ± 0.068 |
| ACCAATGGGG | 1.02 ± 0.036 |
| ACCAATTCGC | 1.06 ± 0.029 |
| ACCAATTGAA | 1.01 ± 0.05 |
| ACCACCGAGG | 1.045 ± 0.0061 |
| ACCACGGGAA | 1.05 ± 0.032 |
| ACCAGCAGCC | 1.21 ± 0.025 |
| ACCAGGCCGC | 1.08 ± 0.03 |
| ACCAGGGAAA | 1.01 ± 0.014 |
| ACCAGGGGGA | 1.01 ± 0.023 |
| ACCAGGGGTT | 1.19 ± 0.027 |
| ACCAGGTGAT | 4.78 ± 0.26 |
| ACCAGTCTAG | 0.979 ± 0.018 |

| Sequence | switch fluorescence ratio |
| --- | --- |
| ACCATTTTTT | 0.9862 ± 0.006 |
| ACCCAAAAAG | 1.05 ± 0.12 |
| ACCCACGGAG | 1.17 ± 0.014 |
| ACCCAGGAGC | 1.35 ± 0.12 |
| ACCCAGGTA | 2.1 ± 0.29 |
| ACCCGCTCTT | 1.13 ± 0.022 |
| ACCCTAGTTG | 1.148 ± 0.0094 |
| ACCCTCCGGC | 2.45 ± 0.026 |
| ACCCTTGGGG | 1.02 ± 0.064 |
| ACCGAGGGGT | 1.06 ± 0.077 |
| ACCGATTTTG | 0.994 ± 0.022 |
| ACCGATTTTT | 1.047 ± 0.01 |
| ACCGCAGGGG | 1.42 ± 0.6 |
| ACCGCATAGT | 2.57 ± 0.099 |
| ACCGCGAGGA | 1.54 ± 0.57 |
| ACCGCTCAGT | 1.06 ± 0.023 |
| ACCGCTTCTG | 1.04 ± 0.032 |
| ACCGGGCGAG | 1 ± 0.042 |
| ACCGGGGAAT | 1.02 ± 0.027 |
| ACCGGGGGCC | 1.02 ± 0.013 |
| ACCGGGTTTT | 1.03 ± 0.02 |
| ACCGTATCTT | 1.06 ± 0.053 |
| ACCGTCCAAA | 1.03 ± 0.024 |
| ACCGTGCCTG | 1.03 ± 0.072 |
| ACCGTGGGTC | 1.02 ± 0.029 |
